The nature of this data set: amyloid nucleation score (Sup35N fusion, yeast selection) (log enrichment); library NNK2; higher = more nucleation; inactive = no reads after selection. In outline:
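Three technical output replicates were used for random libraries. Psi-negative yeast expressing peptides of 20 random codons fused to Sup35N were induced with 100 μM copper sulfate for 24 hours and grown 7 days at 30°C on medium lacking adenine and uracil, and input and output plasmid inserts were Illumina-sequenced, excluding sequences with under 100 input reads. The nucleation score is the DiMSum log enrichment of output over input reads, centred on the mode score of non-aggregating sequences.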

± gives the uncertainty stated by the source.

Turning to LVGSVWFEISFDSQMYSFG, the amyloid nucleation score result is “inactive”.

The substance ATIGSLWRNYNERLFST yielded an amyloid nucleation score of 4.06 ± 0.089.

The substance CTLRGGYISWVQVYE displayed an amyloid nucleation score of 2.1 ± 0.1.

Substance DSACFYENSM came in with an amyloid nucleation score of -0.48 ± 0.79.

The substance HALGGDWHGLGGINS displayed an amyloid nucleation score of -1.43 ± 0.55.

With QLQFMRADFFLNKVKLRGET, the amyloid nucleation score entry was “inactive”.

The substance TMDYRTND returned an amyloid nucleation score of 0.443 ± 0.23.

In the case of IIPCRSLFAFNMMVM, the amyloid nucleation score was 0.288 ± 0.53.

On to RGVKDRKRQVQFEKSSRSMA, for which the amyloid nucleation score was 0.361 ± 0.21.

RFCWAMYNGFPHK showed an amyloid nucleation score of 4.33 ± 0.059.

NMPMQSYTIMVWSLQGMAAG: the amyloid nucleation score is 0.705 ± 0.56.

The substance RLSSHTVMAWVSCNWGDFTV came in with an amyloid nucleation score of 9.919 ± 0.065.

TSGLILL: the amyloid nucleation score is -0.301 ± 0.37.

For RNVGDLMSRGSYYSIPSGNL, the amyloid nucleation score was -1.03 ± 0.41.

In the case of LLVVCSNLQNKVCRRNPEVF, the amyloid nucleation score was -1.79 ± 0.49.

FYLSAFRHVMRASCLDDLSK: the amyloid nucleation score result is “inactive”.

TTSKISSSKSLEARHTSHLP: the amyloid nucleation score was 0.985 ± 0.27.

As for LFRSHSCVCTLVKQ, the amyloid nucleation score was -0.008 ± 0.46.

In turn, QTSLSTMMYLPCH came in with an amyloid nucleation score of 0.7 ± 0.49.

For LNGCSRILAFYMGCSCGGLM, the amyloid nucleation score was -1.02 ± 0.76.

For YNNAGGQVDLNLCYGLDVFL, the amyloid nucleation score entry was “inactive”.

Consider WISNAWLYLWKHR, for which the amyloid nucleation score stood at 0.586 ± 0.81.

IIEPYVHGVWKFHRFYLKSA gave an amyloid nucleation score of -0.701 ± 0.55.

Turning to LLLILTL, the amyloid nucleation score amounted to 0.21 ± 1.

The substance FVPAVEFVHHFAVWVWRE yielded an amyloid nucleation score of 0.072 ± 1.1.

SVVGSYYI yielded an amyloid nucleation score of -0.878 ± 0.36.

AEGVSL yielded an amyloid nucleation score of -0.554 ± 1.

The substance ASLLGQKSAVGILRIHSKLY displayed an amyloid nucleation score of -0.573 ± 1.1.

With RKAMRYVVCDRRPMCYRNSW, the amyloid nucleation score came out at 0.752 ± 0.43.

As to RLKMEICDLTFPAQLFQTFG, the amyloid nucleation score was found to be 3.49 ± 0.079.

In turn, FTWCRWVFWRNCYNDMEEDA came in with an amyloid nucleation score of -1.01 ± 1.1.

For LRTGHPSI, the amyloid nucleation score result is “inactive”.

The substance LDWAWACSWVVA gave an amyloid nucleation score of 0.389 ± 0.8.

Substance SSFIRGLTSKAG gave an amyloid nucleation score of 1.05 ± 0.57.

For the substance MAVKRGIHRQADPGITWDTE, the amyloid nucleation score was found to be 5.17 ± 0.082.

DRWGFDFCQLLV came in with an amyloid nucleation score of 1.95 ± 0.12.

In turn, NSTCDMLVSQVVAAVNGF showed an amyloid nucleation score of -0.715 ± 0.49.

Take VIVKAVVDIIGSN: the amyloid nucleation score was 0.147 ± 0.76.

As for CYWWDWVLY, the amyloid nucleation score is -0.032 ± 0.45.

In turn, EYFFYLLSSIMHIE gave an amyloid nucleation score of 2.45 ± 0.1.

RPSSWVVRCE came in with an amyloid nucleation score of 0.223 ± 0.41.

As for SVCFFVLFYIYSYCRHVMKW, the amyloid nucleation score entry is “inactive”.

SKLRYNFR: the amyloid nucleation score is -0.573 ± 0.32.

ICFGGTLSWSCVVAILNLSN yielded an amyloid nucleation score of 5.616 ± 0.027.

The substance CVSVAFNRNISWW displayed an amyloid nucleation score of -0.021 ± 0.34.

For VNGSIARYGVCFVARCHVIS, the amyloid nucleation score came to 0.246 ± 0.45.

As for CASLRIEDP, the amyloid nucleation score was 1.17 ± 0.18.

Substance KQLKWFCITK returned an amyloid nucleation score of -0.862 ± 0.45.

For the substance TSRLNMVTSHVLKWCDNRSR, the amyloid nucleation score was -0.516 ± 0.5.

Substance LVNSGKLVIPPAVSWWYNWF returned an amyloid nucleation score of -0.763 ± 0.37.

Take LIWVRGNEGRFGGRLVLVVE: the amyloid nucleation score entry is “inactive”.

In turn, IDDDHLEHEVNGSRRCKMRW came in with an amyloid nucleation score of -0.055 ± 1.1.

Regarding NPVMTA, the amyloid nucleation score is -0.314 ± 0.37.

As to GPSLDLDNVDYIGDSTTYQL, the amyloid nucleation score result is “inactive”.

IWTRLGYRQVPRYSAIFSAV: the amyloid nucleation score amounted to 0.136 ± 0.37.

GVFLGALCVFTSCLSELWMC: the amyloid nucleation score is -1.49 ± 0.78.

As for WVLMYDICGS, the amyloid nucleation score result was “inactive”.

Take YIIWLI: the amyloid nucleation score entry is “inactive”.

As for STIEAGCTVVCA, the amyloid nucleation score was 0.24 ± 0.49.

SWGLRTWF displayed an amyloid nucleation score of 1.06 ± 0.39.

As for LAQRSNFRASCWINFLGWLD, the amyloid nucleation score entry is “inactive”.

Turning to FFGGNCKVK, the amyloid nucleation score is -0.146 ± 0.32.

As for WGICSTEVSVIEWDWNGYQF, the amyloid nucleation score is -1.14 ± 1.1.

Take QLIIMCVMGEQTICTVCHTG: the amyloid nucleation score was 7.153 ± 0.042.

The substance MFWSTSYRNNFWTPIWEKLG gave an amyloid nucleation score of -0.597 ± 0.39.

For the substance MRSDYTSWVWVCVFMLTLGV, the amyloid nucleation score is -0.679 ± 0.32.

In turn, VTFSSIVTISLISYLQRFWR displayed an amyloid nucleation score of 5.77 ± 0.04.

On to SICRPIMSESWIASPCVLVG, for which the amyloid nucleation score is -0.012 ± 0.24.

Turning to TTKPSAILWGSTSKRPRLPR, the amyloid nucleation score amounted to 1.23 ± 0.34.

GAIRFK showed an amyloid nucleation score of 0.223 ± 0.54.

The substance KISSLLGWLWRITIRRLGRA came in with an amyloid nucleation score of 0.617 ± 0.65.

The substance FVGTLMDPVSLMKLRW returned an amyloid nucleation score of 0.787 ± 0.31.

Turning to HLLRNLLPHKVGSHVHRWLR, the amyloid nucleation score entry is “inactive”.

AFVSSQVSTYYNFRTKDYSW yielded an amyloid nucleation score of 3.68 ± 0.098.

RQAKPICCHMVLLDSWPKSM returned an amyloid nucleation score of 0.164 ± 0.35.

Substance ESNKRTTCLFH showed an amyloid nucleation score of 0.331 ± 0.32.

For the substance EARSGVNGRARSMFLIGRYS, the amyloid nucleation score is -0.262 ± 0.63.

As for SGCGCGLGMPTCRRSVRG, the amyloid nucleation score turned out to be 0.631 ± 0.19.

In the case of SAVFLLRLCTQIKCMTVR, the amyloid nucleation score entry is “inactive”.

In the case of LTIPDFRSGRRRVAQRDLVV, the amyloid nucleation score is -0.157 ± 0.37.

CTPLGFCSKNRLGLQEDGVK came in with an amyloid nucleation score of -0.788 ± 0.76.

As for DVHTVCASSKHHLRVVKAVT, the amyloid nucleation score is 0.494 ± 0.8.

For GQSLLLEPSGWVSSDIKMKG, the amyloid nucleation score was 0.153 ± 0.79.

As for GQLGNCLVSAAFLFAFIVLS, the amyloid nucleation score came to 4.33 ± 0.075.

CIISFGLMHEYCYVAM had an amyloid nucleation score of 1.9 ± 0.13.

Consider ESMLSEFFWDHS, for which the amyloid nucleation score stood at 3.07 ± 0.072.

Consider TIYWECYMDILARSGAMWVW, for which the amyloid nucleation score is -1.34 ± 0.49.

For CFVWIIRLYVQSRMLSTSNL, the amyloid nucleation score was -0.181 ± 0.8.

As to GGALGDFGTHEFNLNAPYSQ, the amyloid nucleation score entry is “inactive”.

In turn, VGLACSLS yielded an amyloid nucleation score of -1.07 ± 0.78.

In turn, SYCSL yielded an amyloid nucleation score of 0.548 ± 0.38.

On to PSNNIFSLLFLVLKHFIDMR, for which the amyloid nucleation score entry was “inactive”.

The substance PIYCNQRVDRALTMFTQFRA yielded an amyloid nucleation score of -0.121 ± 1.1.

LKWRVRWAIKED came in with an amyloid nucleation score of 0.547 ± 0.21.

Substance CCCLSKHSNECGLRMDRPFT showed an amyloid nucleation score of 0.909 ± 0.6.

Regarding SIIWQRLLGIFNFLGAPESM, the amyloid nucleation score result is “inactive”.

For FLGKDWYVVTSVVKYTNAFF, the amyloid nucleation score came out at 0.104 ± 0.45.

MRMGMLKMTFFGCSPDLKRL showed an amyloid nucleation score of -0.277 ± 0.38.

In turn, LTYILFGYFMASCFMCFFVS showed an amyloid nucleation score of 0.138 ± 1.1.

In the case of ILIKIKRWSFRFPFGFGKLD, the amyloid nucleation score entry was “inactive”.

NKCQMSCNRRYEDMGYDRCM: the amyloid nucleation score is 0.038 ± 0.53.

For HVLSLGAGWKYVGVDECKE, the amyloid nucleation score amounted to 0.317 ± 0.31.

As to VGILSRWLRGRFTVTRWLWC, the amyloid nucleation score is -0.945 ± 1.1.

SLQRIKGNFQPMVFAINMFN had an amyloid nucleation score of 4.6 ± 0.11.

In turn, PHLASPYHHPCNPQFLFPYL gave an amyloid nucleation score of 0.016 ± 1.1.

Regarding RYRRFVIGVQWQRLSRG, the amyloid nucleation score is -0.19 ± 1.1.

Consider SLSVI, for which the amyloid nucleation score was 0.264 ± 0.65.

In turn, GVKSFGVFGSMYWILMFSKA came in with an amyloid nucleation score of -0.495 ± 0.48.

For the substance FGYHGSYMWYAFQGHYNKGY, the amyloid nucleation score was 0.743 ± 0.42.

As for KNGATLSCYILYSCGLMASV, the amyloid nucleation score is -2.34 ± 0.62.

Substance GMLFRWCG yielded an amyloid nucleation score of 7.56 ± 0.047.

Substance FNHLRSARILPGFFSFSRFK showed an amyloid nucleation score of -1.35 ± 0.54.

Consider LWSSKYYKPPYWDNVVCSII, for which the amyloid nucleation score was -0.699 ± 1.

As for PLNCLPGNCSAQPRFGAASG, the amyloid nucleation score worked out at 0.505 ± 0.39.

RTSGAVDCTHRFFSEWFKGV: the amyloid nucleation score result was “inactive”.

Substance LFVCNSMP displayed an amyloid nucleation score of 0.35 ± 0.8.

Regarding YYSCPASLLFNTGLPVKYSW, the amyloid nucleation score is -1.26 ± 0.36.

The substance VICCEVLPSAPLSLWMNLKV returned an amyloid nucleation score of -0.469 ± 1.1.

Consider YLSIFRVLSIFCVWLHTVGN, for which the amyloid nucleation score entry is “inactive”.

With DGCLARGYNKGVHDGVVEYL, the amyloid nucleation score was -0.088 ± 1.1.

LRSFM: the amyloid nucleation score was -0.591 ± 0.5.

For the substance TINTAMWTWSITETLPYCTW, the amyloid nucleation score is 4.03 ± 0.06.

In the case of VSARDHLGKRNRHWINC, the amyloid nucleation score is -0.626 ± 0.55.

On to DGLARAYAARM, for which the amyloid nucleation score is 1.53 ± 0.29.

Take PCRYSSKSNYTW: the amyloid nucleation score is -0.507 ± 0.76.

In the case of MVHMGGDDMCCGIVVWTQAP, the amyloid nucleation score worked out at 11.85 ± 0.066.

In turn, MHASDDMLKCWYKCAEVRPA returned an amyloid nucleation score of 1.29 ± 0.31.

On to RCCFAARMYYGHTLASAVIR, for which the amyloid nucleation score amounted to 1.38 ± 0.3.

Turning to GGIRYVSVFQIFASCCFSRV, the amyloid nucleation score was 8.977 ± 0.05.

In the case of LLFTLGNGGFSLRYKK, the amyloid nucleation score was -0.265 ± 0.23.

With GIFISISPPIGESSGNLQLN, the amyloid nucleation score result was “inactive”.

The substance DSKWIM registered an amyloid nucleation score of -0.326 ± 0.46.

With MLDVCGVLHLPRRSLIAFVA, the amyloid nucleation score was 1.27 ± 0.21.

NSKYPGVLYCFYRGFGRRVY: the amyloid nucleation score result is “inactive”.

Consider YLFVQEKKRVFRYFRWRHPV, for which the amyloid nucleation score is -0.032 ± 0.8.

On to GNMISERSKSSVHN, for which the amyloid nucleation score was -1.52 ± 1.1.

PKNMWGSNNLRGMPVSDVKS registered an amyloid nucleation score of 0.032 ± 0.34.

For LCERYWKALK, the amyloid nucleation score entry was “inactive”.

The substance VRVHCLHLVYYYSQCPRYNN gave an amyloid nucleation score of -0.277 ± 1.1.

Values taken from the supplement of paper PMC12042874.
